Target: human Claudin18.2 (Homo sapiens, UniProt P56856)
Experiment: Cellular ELISA on L929-Claudin 18.2 cells
Format: binding
Set-up: expressed in transfected cells; host or cells: L929, infected with pLVX-IRES-puro lentivirus, puromycin-selected monoclonal line; cells were formaldehyde-fixed for the cellular ELISA
Settings: Table 10 experiment
Procedure: Human Claudin18.2 is a four transmembrane protein and has a complex structure. Cellular ELISA was thus carried out to maintain the structure of Claudin18.2. The stable cell line L929-Claudin 18.2 constructed in Example 1 were used for detection. Specifically, L929-Claudin 18.2 adherent cells were detached by 2 mM EDTA treatment. The cells were resuspended and adjusted to 2×10^5/mL and 100 μL of the resuspension was plated into 96 well plate and incubated overnight at 37° C. The next day, the media was removed, and the plate was washed with PBS once. 100 μL/well 4% formaldehyde was added to the plate. After 30 min of incubation at room temperature, formaldehyde was removed, followed by washing twice with PBS. Blocking buffer (PBS containing 2% BSA) was then added to the plate at 100 μL/well, and incubated at 37° C. for 2 h. After removal of blocking buffer, 100 μL/well of serially diluted antibodies (starting from 1 μM, with 4-fold dilution, for a total of 11 concentrations) were added to the corresponding wells, which were incubated at 37° C. for 2h afterwards. The plate was washed with 250 μL PBST for 5 times, and was allowed to stand for 2 min each time. 100 μL/well of horseradish peroxidase labeled anti-Human IgG secondary antibody (HRP-anti-Human IgG, Jackson ImmunoResearch, 109-035-003) diluted 1:10000 in PBS (containing 2% BSA) was added to the plate. The plate was incubated at 37° C. for 1 h and washed with 250 μL PB ST 6 times, wherein the plate was allowed to stand for 2 min each time. 100 μL/well of TMB solution (Thermo, 34029) was added. The reactions were incubated at 37° C. for 20 min and stopped with 50 μL 2 mol/L H2504. The absorbance at 450 nm was read on a plate reader (MD, SpectraMax M2) and the results were subjected to curve fitting by Graphpad Prism.

Max Signal Value (OD450): 0.8 OD450
B1: 2C6.9-hz11: humanized antibody of 2C6.9; VH SEQ ID NO: 39, VL SEQ ID NO: 41 (antibody, V domains shown)
VH: QVQLQESGPGLVKPSETLSLTCTVSGFSLTRYGVSWIRQPPGKGLEWIGVIWGDGNTNYNPSLKSRVTISKDSSKSQVSLKLSSVTAADTAVYYCARVNFGNALDYWGQGTLVTVSS
VL: DIVMTQSPDSLAVSLGERATINCKSSQSLLNSGNQKNYLTWYQQKPGQPPKLLIYWASTRDSGVPDRFSGSGSGTDFTLTISSLQAEDVAVYYCQNDFIFPLTFGGGTKVEIK
modifications: Heavy chain variable region of humanized antibody 2C6.9hz11; light chain variable region of humanized antibody 2C6.9hz11/2C6.9hz21

Reference: patent publication US12297265B2, “Antibody and use thereof” (SICHUAN KELUN-BIOTECH BIOPHARMACEUTICAL CO., LTD., priority 2018, dated 2025)
